Test results published in patent US8785384B2, “Peptide synthesis” (Chemical & Biopharmaceutical Laboratories of Patras, priority 2010, dated 2014).
Where no end group is shown, it is not given here. [ ]: non-standard residue; d: D form. Met(O) = CS(=O)CC[C@H](N)C(=O)O

Tests used:
[1] = Solubility of relaxin B-chains (methionine sulphoxide vs non-oxidised); format: physicochemical, human; details: compared with RLX1B and RLX2B respectively / non-oxidised analogue
[2] = background statement on earlier attempts at synthetic human relaxins; cited from earlier work

| Substance | solubility relative to the corresponding non-oxidised B-chain [1] | solubility of non-oxidised B-chain [2] |
| --- | --- | --- |
| Met(O)^24-RLX1B: Met(O)^24-human relaxin 1 B-chain, SEQ ID NO: 6; linear (compound 9) or cyclic (compound 10) form not specified (KWKDDVIKLCGRELVRAQIAICG[Met(O)]STWS; not fully specified; cysteine pairing not given here; listed as Homo sapiens) | higher solubility | – |
| RLX1B: Chain B of human relaxin-1, SEQ ID NO: 3 (KWKDDVIKLCGRELVRAQIAICGMSTWS; listed as Homo sapiens) | – | highly insoluble or hydrophobic |
| RLX2B: Chain B of human relaxin-2, SEQ ID NO: 5 | – | highly insoluble or hydrophobic |
| Met(O)^25-RLX2B: Met(O)^25-human relaxin 2 B-chain, SEQ ID NO: 7; linear (compound 13) or cyclic (compound 14) form not specified | higher solubility | – |
